# Test results from the RNAGym collection of RNA variant scans (doi:10.1073/pnas.2313332121).
# Variants at the floor of the assay were thinned out.
# B1: TPR 5TU (parent)
# chain: GGAUCUUCUCGAUCUAACAAAAAAGACAAAUCUGCCACAAAGCUUGAGAGCAUCUUCGGAUGCAGAGGCGGCAGCCUUCGGUGGCGCGAUAGCGCCAACGUUCUCAACUAUGACACGCAAAACGCGUGCUCCGUUGAAUGGAGUUUAUCAUG
# Variants of: B1
# Assay: polymerase ribozyme fitness, log enrichment relative to wild type (log ratio); higher = more active; in vitro selection for triplet polymerase activity
# Procedure, shortened: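 Input and output libraries were sequenced on Illumina after a single in vitro selection round, run in triplicate on PCR-built, transcribed mutant libraries of each subunit of a heterodimeric triplet polymerase ribozyme. Selection annealed libraries to a biotinylated primer, the partner subunit and triplets, incubated them frozen at −7 °C, then gel-excised extended constructs for streptavidin-bead capture and RT-PCR. Genotypes with ≥10 input reads and ≥1 read per output were kept. Fitness is the logarithm, taken in base 2, of genotype enrichment divided by wild-type enrichment, using inverse-variance-weighted replicate averages.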
row,Variant,polymerase ribozyme fitness (log ratio)
1,GGAUCUUCUCGAUCUAACAAAAACGACAAAUCUGCCACAAAGCUUGAGAGCAUCUUCGGAUGCAGACGCGGCAGCCUUCGGUGGCGCGAUAUCGCCAAUGUUCUCAACGUUGACACGCAAAACGCGUGCUCCGUUGAAUGGAGUUUAUCAUG [A24C G67C G92U C99U U109G A110U],≤ -4.2
2,GGAUCUUCUCGAUCUAACAAAAAAGACAAAUCUGCCACAAAGCUUGAGAGCAGCUUCGGAUGCAGAGGCGGCAGCCUUCGGUGGCGCGAUAGCUCCACCGUUCUCAACUAUGACACGCAAAACGCGUGCUCCGUUGAAUGGAGUUUAUCAUG [U53G G94U A98C],-2.12
3,GGAUCUUCUCGAUCUAACAGAAAAGACAAAUCUGCCACAAAGCUUGAGAGCAUCUUCGGAUGCAGAGGCGGCAGCCUUCGGUGGCGUGAUAGCGCCAACGUUCUCAACUAUGACACGCAAAACGCGUGCUCCGUUGAAUGGAGUUUAACAUG [A20G C87U U148A],-3.21
4,GGAUCUUCUCGAUCUAACAAAACAGACAAAUCUGCCACAAAGCUUGAGAGCAUCUUCGGAUGCAGAGGCGGCAGCCUUCGGUGGCGCGAUAGAGCCAACGUUCUCAACUAUGACACGCAAAACGCGUGCUCCGUUGAAUGGAGUUUAUCAUG [A23C C93A],-3.87
5,GGAUCUUCUCGAUCUAACAAAAAAGACAAAUCUGCCACAAAGCUUGAGAGCGUCUUAGGAUGCAGAGGCGGCAGCCUUCGGUGGCGCGAUAUCGCCAACGUUCUCAACUAUGACACGCAAAACGCGUGCUCCGUUGAAUGGAGUUUAUCAUG [A52G C57A G92U],-0.753
6,GGAUCUUCUCGAUCUAACAAAAAAGACAAAUCUGCCACAAAGCUUGAGAGCAUCUUCGCAUGCAGAGGCGGCAGCCUUCGGUGGGGCGAUAGCGUCAACGUUCUCAACUAUGACAAGCAAAACGCGUGCUCCGUUGAAUGGAGUUUAUCAUG [G59C C85G C95U C116A],-2.38
7,GGAUCUUCUCGGUCUAACAAAAAAGACAAAUCUGCCACAAAGCUUGAGAGCAUCUUCGCAUGCAGAGGCGGCAGCCUUCGGUGGCGCGAUAGCGCCAACGUUCUCAACUAUGACACGCAAAACGCGUGCUCCGUUGAAUGGAGUUUAUCAUG [A12G G59C],0.244
8,GGAUCUUCUCGAUCUAACAAAAAAGACAAAUCUGCCACAAAGCUUGAGAGCAUCUUCUGAUGCAGAGGCGGCAGCCUUCGGUGGCGCGAUAGCGCCAACGUUCUCAACUAUGACACGCAAAACGCGUUCUCCGUUGAAUGGAGUUUAUCAUG [G58U G128U],-3.02
9,GGAUCUUCUCGAUCUAACAAAAAAGACAAAUCUGCCACAAAGCUUGAGAGCAUCUUCGGAUCCAGAGGCGGCAGCCUUCGGUGGCGCGAUAGCGUAAACGUUCUCAACUAUGACACGCAAAACGCGUGCUCCGUUGAAUGGAGUUUAUCAUG [G62C C95U C96A],-3.59
10,GGAUCUUCUCGAUCUAACGAAGAAGACAAAGCUGCCACAAUGCAUGAGAGCAUCUUCGGCUGCAGAGGCGGCAGCCUUCGAUCACGCGAUAGCGCCAACGUUCUCAACUAUGACACGCAAAACGCGUGCUCCGUUGAAUGGAGUUAAUCAUG [A19G A22G U31G A41U U44A A60C G81A G83C G84A U146A],≤ -4.2
11,GGAUCUUCUCGAUCUAACAAAAAAGACAAAUCUGCCCCAAAGCUUGAGAGCAUCUUCGGAUGCAGAGGCGGCAGCCUUCGGUGGCGCGAUAGCGUCAACGUUGUCAACUAUGACACGGAAAACGCGUGCUCCGUUGAAUGGAGUUUAUCAUG [A37C C95U C103G C118G],≤ -4.2
12,GGAUCUUCUCGAUCUAAGAAAAAAGACAAAUCUGCCAGAAAGCUUGAGAGCAUCUUCGGAUGCAGAGGCGGCAGCCUUCGCUGGCGCGAUAGGGCCAACGUUCUCAACUAUGACACGCAAAACGCGUGCUCCGUUGAAUGGAGUUUAUCAUG [C18G C38G G81C C93G],≤ -4.2
13,GGAUCUUCUCGAUCUAACAAACAAGACAAAUCUGCCACAAAGCUUGAGAGCAGCUUCGGAUGCAGAGGCGGCAGCCUUCGGUGGCGCGAUAGCACCAACGUUCUCAACUAUGACACGCGAAACGCGUGCUCCGUUGAAUGGAGUUUAUCAUG [A22C U53G G94A A119G],-1.81
14,GGAUCUUCUCGAUCUAACAAAAAAGACAAAUCUGCCACAAAGCUUGAGAGCAUAUUCGGAUGCAGAGGCGGCAGCCUUCGGUGGCGCGAUAGCGCCAACGUUCUCCACUAUGACACGCAAAACGCGUGCUCCGUUGAAUGGAGUUUAUCAUG [C54A A106C],-2.06
15,GGAUCUUCUCGAUCUAACAAAAAAGACAAAUCUGCCACAAAGCUUGAGAGCAUCUUCGGAUGCAGAGGCGGCAGCCUUCGGUGGCGCGAUAGCGCCAACGUUCUCAACUAUGACACGCAAAACGCGUGCUCCGUUGAAAGGAGAUUAUCAUG [U139A U144A],-4.15
16,GGAUCUUCUCGAUCUAACAAAAAAGACAUAUCUGCCACAAAGCUUGAGAGCAUCUUCGGAUGCAGAGGAGGCAGCCUUCGGUGACGCGAUAGCGCCAACGUUCUCAACUAUGACACGCAAAACGCGUGCUCCGUUGAAUGAAGUUUAUCAUG [A29U C69A G84A G141A],≤ -4.2
17,GGAUCUUCUCGAUCUAACAAAAAAGACAAAUCUGCCACAACGCUUGAGAGCAUCUUCGGAUGCAAAGGCGGCAGCCUUCGGUGGCGCGAUAGUUCCAACGUUGUCAACUAUGACACGCAAAACGCGUGCUCCGUUGAAUGGAGUUUAUCAUG [A41C G65A C93U G94U C103G],≤ -4.2
18,GGAUCUUCUCGAUCUAACAAAAAAGACAAAUCUGCCACAAAGCUUGAGAGCAUCUUCGGAUGCAUCGGCGGCAGCCAUCGGUGGCGCGAUAGCGCCAACGUUCUCAACUAUGACACGCAAAACGCGUGCUCCGUUGAAUGGAGUUUCUCAUG [G65U A66C U77A A147C],≤ -4.2
19,GGAUCUUAUCGAUCUGACAAAAAAGACAUAUCUGCCACAAAGCUUGUGAGCAUCUUCGGAUGCAGAGGCGUCAGCCUUCGGUGGCGCGAUAGAGCCAACGUUCUCGACUAUGACACGCAAAACGCGUGCUCCUUUGAAUGGAGUUUAUUAUG [C8A A16G A29U A47U G71U C93A A106G G133U C149U],≤ -4.2
